Experimental findings from paper PMC10511499, “Conserved roles for the dynein intermediate chain and Ndel1 in assembly and activation of dynein” (Nature Communications, 2023) are described below.

B1: human Ndel1 coiled-coil domain (Ndel1^CC, residues 1-195) (domain or fragment, UniProt Q9GZM8 1-195, looked up)
chain: MDGEDIPDFSSLKEETAYWKELSLKYKQSFQEARDELVEFQEGSRELEAELEAQLVQAEQRNRDLQADNQRLKYEVEALKEKLEHQYAQSYKQVSVLEDDLSQTRAIKEQLHKYVRELEQANDDLERAKRATIVSLEDFEQRLNQAIERNAFLESELDEKESLLVSVQRLKDEARDLRQELAVRERQQEVTRKSA
notes: Ndel1, human, coiled-coil domain, residues 1-195; also called NudEL^CC; source: E. coli BL21-CodonPlus (DE3)-RIPL, purified (Strep-tactin XT, HiTrap Q, SEC)
B3: yeast Ndl1 coiled-coil domain (Ndl1^CC, residues 2-132) (domain or fragment, S. cerevisiae, UniProt Q06568 2-132, looked up)
chain: VPNLDLETAIQIISSLETQLSELEGATKEYENDLEQVISKLKSDLLESQQQNKCNKKQITDLEIQVDELENENIQLRNKIETLQLESDRRLERNVLLEHELLDTKEALQKLRVSKEEATSGETRRNTRSLP
notes: Ndl1, S. cerevisiae, coiled-coil domain, residues 2-132; No cleavage of the tags is described; also called StrepII-sfGFP-Ndl1^CC; source: E. coli BL21-CodonPlus (DE3)-RIPL, purified (Strep-tactin XT, SEC)

Series [1] concerns the molecule itself. Nature of the series: mass photometry; human proteins; preincubated at 0.5-1 µM for 5 min at room temperature, 1:1 molar ratio, measured at 5-20 nM; 90 mM HEPES-KOH pH 7.4, 50 mM K-acetate.
Series [2] concerns the target B1. The description is as above. The conditions noted are these: both partners purified.
Series [3] concerns the molecule itself. Kind of series: mass photometry; yeast proteins; mixed 1:1 at 50-100 nM each, 1-2 min, measured at 10-20 nM; 50 mM Tris pH 8.0, 150 mM K-acetate.
Series [4] deals with T1, yeast dynein complex, wild type (Dyn1, Pac11, Dyn3, Dyn2) (S. cerevisiae, UniProt P36022 1-4092; P40960 1-533; Q04949 1-312; Q02647 1-92, JF503-, JFX549- or JFX646-HaloTag ligand on the HaloTag).
T1 construct: dynein heavy chain Dyn1, S. cerevisiae; dynein intermediate chain Pac11, S. cerevisiae; dynein light-intermediate chain Dyn3, S. cerevisiae; dynein light chain Dyn2, S. cerevisiae; also called WT dynein; HaloTag-Dyn1 complex; source: S. cerevisiae, all genes overexpressed from GAL1p; purified (IgG sepharose, TEV elution); not shown: 8His (also printed 6xHis), N-terminal, cleaved; ZZ, N-terminal, …
T1 sequence (P36022 whole entry, chain 1 of 4): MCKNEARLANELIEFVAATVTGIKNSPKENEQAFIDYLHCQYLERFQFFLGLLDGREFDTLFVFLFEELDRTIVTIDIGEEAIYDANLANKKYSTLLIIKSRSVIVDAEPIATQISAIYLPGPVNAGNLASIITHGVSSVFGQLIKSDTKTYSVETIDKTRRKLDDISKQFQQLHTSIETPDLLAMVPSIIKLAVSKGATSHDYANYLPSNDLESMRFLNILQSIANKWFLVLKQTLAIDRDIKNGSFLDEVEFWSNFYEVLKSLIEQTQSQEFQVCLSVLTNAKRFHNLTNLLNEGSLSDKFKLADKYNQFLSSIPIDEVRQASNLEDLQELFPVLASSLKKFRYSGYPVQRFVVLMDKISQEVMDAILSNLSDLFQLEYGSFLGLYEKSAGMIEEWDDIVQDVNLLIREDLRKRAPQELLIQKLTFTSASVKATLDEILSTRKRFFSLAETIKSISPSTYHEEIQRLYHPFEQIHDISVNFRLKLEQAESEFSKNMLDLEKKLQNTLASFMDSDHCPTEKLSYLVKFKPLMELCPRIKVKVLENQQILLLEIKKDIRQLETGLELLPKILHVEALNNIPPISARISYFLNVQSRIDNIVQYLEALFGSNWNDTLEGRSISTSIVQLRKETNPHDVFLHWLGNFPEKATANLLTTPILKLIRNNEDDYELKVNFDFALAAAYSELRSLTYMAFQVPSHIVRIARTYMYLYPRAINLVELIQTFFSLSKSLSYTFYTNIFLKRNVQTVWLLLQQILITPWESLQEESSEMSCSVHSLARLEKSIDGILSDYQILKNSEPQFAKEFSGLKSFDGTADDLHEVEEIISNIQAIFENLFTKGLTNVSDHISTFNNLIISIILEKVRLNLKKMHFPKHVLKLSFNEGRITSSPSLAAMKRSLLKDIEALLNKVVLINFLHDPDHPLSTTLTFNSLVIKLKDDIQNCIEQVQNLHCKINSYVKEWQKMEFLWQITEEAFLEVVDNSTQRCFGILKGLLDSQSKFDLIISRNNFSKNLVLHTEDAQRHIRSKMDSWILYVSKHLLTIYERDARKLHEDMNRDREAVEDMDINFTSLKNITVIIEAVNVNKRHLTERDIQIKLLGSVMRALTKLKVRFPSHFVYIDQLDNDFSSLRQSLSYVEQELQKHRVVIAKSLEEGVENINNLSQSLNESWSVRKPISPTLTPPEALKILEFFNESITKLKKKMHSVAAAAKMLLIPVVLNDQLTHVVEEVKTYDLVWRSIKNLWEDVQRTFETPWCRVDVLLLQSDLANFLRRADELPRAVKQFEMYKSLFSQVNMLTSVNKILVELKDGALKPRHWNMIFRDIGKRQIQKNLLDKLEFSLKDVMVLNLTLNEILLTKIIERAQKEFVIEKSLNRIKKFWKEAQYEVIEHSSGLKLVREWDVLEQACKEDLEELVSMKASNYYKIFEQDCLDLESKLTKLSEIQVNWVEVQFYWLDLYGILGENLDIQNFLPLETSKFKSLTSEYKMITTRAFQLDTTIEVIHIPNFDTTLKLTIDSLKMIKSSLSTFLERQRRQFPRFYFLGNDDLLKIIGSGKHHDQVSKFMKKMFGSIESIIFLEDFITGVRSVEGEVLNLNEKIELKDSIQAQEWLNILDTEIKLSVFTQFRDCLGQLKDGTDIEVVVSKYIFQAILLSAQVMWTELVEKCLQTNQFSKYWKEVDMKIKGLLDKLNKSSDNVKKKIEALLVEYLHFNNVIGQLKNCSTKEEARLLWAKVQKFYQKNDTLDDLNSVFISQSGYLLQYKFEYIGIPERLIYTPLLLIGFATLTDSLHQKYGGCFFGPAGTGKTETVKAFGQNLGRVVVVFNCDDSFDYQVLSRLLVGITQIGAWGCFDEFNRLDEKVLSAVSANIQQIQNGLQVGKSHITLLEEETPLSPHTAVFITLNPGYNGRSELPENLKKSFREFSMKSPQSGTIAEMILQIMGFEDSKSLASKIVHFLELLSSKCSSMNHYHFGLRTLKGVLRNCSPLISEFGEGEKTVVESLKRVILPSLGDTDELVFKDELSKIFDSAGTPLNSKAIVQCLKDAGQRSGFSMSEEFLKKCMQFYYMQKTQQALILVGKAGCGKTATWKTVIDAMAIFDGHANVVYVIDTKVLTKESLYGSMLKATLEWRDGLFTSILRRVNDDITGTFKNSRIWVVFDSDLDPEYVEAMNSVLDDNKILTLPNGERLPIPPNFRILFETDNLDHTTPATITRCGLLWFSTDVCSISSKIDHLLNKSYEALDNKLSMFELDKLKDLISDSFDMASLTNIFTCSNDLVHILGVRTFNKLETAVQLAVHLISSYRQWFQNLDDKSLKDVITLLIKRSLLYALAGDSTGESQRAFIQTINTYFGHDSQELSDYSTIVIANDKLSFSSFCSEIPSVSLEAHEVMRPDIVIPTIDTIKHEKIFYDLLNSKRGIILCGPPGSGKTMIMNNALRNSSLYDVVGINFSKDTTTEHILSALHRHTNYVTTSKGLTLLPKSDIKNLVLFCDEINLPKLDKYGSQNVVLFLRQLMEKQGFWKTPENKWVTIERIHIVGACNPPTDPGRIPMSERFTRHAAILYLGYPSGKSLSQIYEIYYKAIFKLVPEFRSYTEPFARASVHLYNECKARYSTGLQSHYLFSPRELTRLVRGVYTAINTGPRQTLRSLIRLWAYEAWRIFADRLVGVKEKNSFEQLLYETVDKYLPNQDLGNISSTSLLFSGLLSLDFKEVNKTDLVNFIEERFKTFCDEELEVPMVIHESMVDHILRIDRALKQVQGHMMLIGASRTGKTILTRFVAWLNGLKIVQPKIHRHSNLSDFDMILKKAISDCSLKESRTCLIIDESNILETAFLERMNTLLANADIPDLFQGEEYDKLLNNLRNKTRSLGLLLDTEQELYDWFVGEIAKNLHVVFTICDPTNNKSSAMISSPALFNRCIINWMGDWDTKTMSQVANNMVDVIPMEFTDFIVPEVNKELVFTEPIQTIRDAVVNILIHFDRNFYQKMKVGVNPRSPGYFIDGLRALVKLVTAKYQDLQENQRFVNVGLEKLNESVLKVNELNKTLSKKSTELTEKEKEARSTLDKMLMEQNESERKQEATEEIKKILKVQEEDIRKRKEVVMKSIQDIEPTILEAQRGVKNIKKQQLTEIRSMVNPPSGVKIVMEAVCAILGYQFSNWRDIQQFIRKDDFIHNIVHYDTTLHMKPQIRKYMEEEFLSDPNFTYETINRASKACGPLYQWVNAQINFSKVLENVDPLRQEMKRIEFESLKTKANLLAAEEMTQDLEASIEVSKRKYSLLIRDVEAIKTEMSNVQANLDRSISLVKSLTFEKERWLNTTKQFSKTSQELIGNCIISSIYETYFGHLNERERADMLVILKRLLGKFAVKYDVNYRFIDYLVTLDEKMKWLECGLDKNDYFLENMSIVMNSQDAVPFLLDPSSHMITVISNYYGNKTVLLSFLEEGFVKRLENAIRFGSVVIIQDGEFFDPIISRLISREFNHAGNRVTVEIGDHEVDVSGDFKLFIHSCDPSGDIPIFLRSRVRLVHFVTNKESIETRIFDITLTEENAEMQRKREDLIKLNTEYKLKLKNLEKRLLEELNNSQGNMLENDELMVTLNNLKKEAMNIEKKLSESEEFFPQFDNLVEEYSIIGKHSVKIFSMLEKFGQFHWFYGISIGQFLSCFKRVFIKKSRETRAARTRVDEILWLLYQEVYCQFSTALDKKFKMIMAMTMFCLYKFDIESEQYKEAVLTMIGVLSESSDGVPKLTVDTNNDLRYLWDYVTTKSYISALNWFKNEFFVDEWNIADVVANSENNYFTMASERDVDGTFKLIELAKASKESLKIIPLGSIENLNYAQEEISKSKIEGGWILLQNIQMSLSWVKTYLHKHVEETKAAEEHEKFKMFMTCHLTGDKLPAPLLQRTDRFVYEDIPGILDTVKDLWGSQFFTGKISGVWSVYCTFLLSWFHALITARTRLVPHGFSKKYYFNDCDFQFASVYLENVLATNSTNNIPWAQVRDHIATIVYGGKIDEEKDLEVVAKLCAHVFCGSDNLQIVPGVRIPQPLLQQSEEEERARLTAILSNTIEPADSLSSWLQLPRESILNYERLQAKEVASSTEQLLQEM
T1 sequence (P40960 whole entry, chain 2 of 4): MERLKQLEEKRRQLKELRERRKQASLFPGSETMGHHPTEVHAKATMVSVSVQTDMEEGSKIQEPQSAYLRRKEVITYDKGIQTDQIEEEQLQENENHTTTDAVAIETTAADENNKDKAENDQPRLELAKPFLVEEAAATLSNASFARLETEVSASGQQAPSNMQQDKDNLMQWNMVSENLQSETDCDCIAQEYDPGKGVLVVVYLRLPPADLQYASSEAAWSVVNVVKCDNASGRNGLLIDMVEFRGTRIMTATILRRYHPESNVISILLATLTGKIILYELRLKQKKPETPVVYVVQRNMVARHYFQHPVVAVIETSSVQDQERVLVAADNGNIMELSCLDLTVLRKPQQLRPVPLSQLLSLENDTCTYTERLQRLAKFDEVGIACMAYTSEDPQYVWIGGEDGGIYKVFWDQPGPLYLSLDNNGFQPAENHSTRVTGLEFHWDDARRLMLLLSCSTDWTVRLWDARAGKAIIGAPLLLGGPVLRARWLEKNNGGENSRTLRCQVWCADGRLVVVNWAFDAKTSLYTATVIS
T1 sequence (Q04949 whole entry, chain 3 of 4): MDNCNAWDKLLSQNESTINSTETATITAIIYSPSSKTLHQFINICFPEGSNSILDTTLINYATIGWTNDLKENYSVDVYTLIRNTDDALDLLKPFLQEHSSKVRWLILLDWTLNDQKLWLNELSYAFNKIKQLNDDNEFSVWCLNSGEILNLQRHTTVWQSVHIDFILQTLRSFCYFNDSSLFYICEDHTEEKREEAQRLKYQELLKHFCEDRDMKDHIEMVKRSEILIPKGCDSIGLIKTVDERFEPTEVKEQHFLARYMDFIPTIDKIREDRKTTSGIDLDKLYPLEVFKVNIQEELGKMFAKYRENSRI
T1 sequence (Q02647 whole entry, chain 4 of 4): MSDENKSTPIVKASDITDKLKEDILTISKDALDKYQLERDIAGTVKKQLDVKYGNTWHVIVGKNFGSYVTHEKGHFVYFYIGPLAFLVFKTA
Kind of series: TIRF microscopy microtubule recruitment assay; yeast proteins; dynein on taxol-stabilised microtubules held by anti-tubulin antibody; fluorescent partner flowed in, TEV buffer with 1 mM DTT, 5-10 min; intensity along microtubules. The conditions noted are these: both partners purified.

The target of series [5] is B3. Kind of series: mass photometry; yeast proteins; mixed 1:1 at 50-100 nM each, 1-2 min, measured at 10-20 nM; 50 mM Tris pH 8.0, 150 mM K-acetate. The conditions noted are these: both partners purified.
In series [6] the target is T2, yeast dynein^∆ICN complex (Pac11 lacking its N-terminal 43 residues) (S. cerevisiae, UniProt P36022 1-4092; P40960 44-533; Q04949 1-312; Q02647 1-92, JF503-, JFX549- or JFX646-HaloTag ligand on the HaloTag).
T2 construct: dynein heavy chain Dyn1, S. cerevisiae; dynein intermediate chain Pac11, S. cerevisiae, N-terminal 43 residues deleted; dynein light-intermediate chain Dyn3, S. cerevisiae; dynein light chain Dyn2, S. cerevisiae; also called Pac11^∆ICN dynein; source: S. cerevisiae, all genes overexpressed from GAL1p; purified (IgG sepharose, TEV elution); not shown: 8His (also printed 6xHis), N-terminal, …
Kind of series: TIRF microscopy microtubule recruitment assay; yeast proteins; dynein on taxol-stabilised microtubules held by anti-tubulin antibody; fluorescent partner flowed in, TEV buffer with 1 mM DTT, 5-10 min; intensity along microtubules. The conditions noted are these: both partners purified.

As to B1, in series [1], the “stoichiometry N” value stood at 2.

B2: LIS1, wild type, as used in mass photometry (construct not told) (natural protein, human, UniProt P43034 1-410, looked up)
chain: MVLSQRQRDELNRAIADYLRSNGYEEAYSVFKKEAELDVNEELDKKYAGLLEKKWTSVIRLQKKVMELESKLNEAKEEFTSGGPLGQKRDPKEWIPRPPEKYALSGHRSPVTRVIFHPVFSVMVSASEDATIKVWDYETGDFERTLKGHTDSVQDISFDHSGKLLASCSADMTIKLWDFQGFECIRTMHGHDHNVSSVAIMPNGDHIVSASRDKTIKMWEVQTGYCVKTFTGHREWVRMVRPNQDGTLIASCSNDQTVRVWVVATKECKAELREHEHVVECISWAPESSYSSISEATGSETKKSGKPGPFLLSGSRDKTIKMWDVSTGMCLMTLVGHDNWVRGVLFHSGGKFILSCADDKTLRVWDYKNKRCMKTLNAHEHFVTSLDFHKTAPYVVTGSVDQTVKVWECR
notes: LIS1, human; also called WT LIS1; source: Sf9 cells, purified
In the case of B2, the “stoichiometry N” value in series [2] was 1 LIS1 dimer per Ndel1 dimer.
Consider B3, for which, in series [3], the “stoichiometry N” value was 2. For the same molecule, the binding result in series [4] is “binds”.

B4: yeast Ndl1^CC E64A R78A (domain or fragment, S. cerevisiae, UniProt Q06568 2-132, looked up)
chain: VPNLDLETAIQIISSLETQLSELEGATKEYENDLEQVISKLKSDLLESQQQNKCNKKQITDLAIQVDELENENIQLANKIETLQLESDRRLERNVLLEHELLDTKEALQKLRVSKEEATSGETRRNTRSLP
notes: Ndl1, S. cerevisiae, residues 2-132, E64 and R78 changed to alanines; also called interface 2 mutant of Ndl1^CC; source: E. coli BL21-CodonPlus (DE3)-RIPL, purified
For the molecule B4, the binding result in series [4] is on record as “binds”.

B5: full-length yeast Pac1 with C-terminal FLAG-SNAPf (natural protein, S. cerevisiae, UniProt P39946 1-494, looked up)
chain: MTNWQQQLPLTDTQKNELDKSVLRYLNWNYKQTVRHEHAQDYESVRHAIVTLSGFLLQESVDRQEFISNNDTSNESMVDIDELLLPKKWNSIVRLQKKIIELEQNTETLVSQIKDLNTQVSELAQFKPTTSNGTSAHNVLKWIPRNLPSCLINVESSVTSVKLHPNLPIVFVATDHGKLYAFDLFNYTIPLASLQSHTKAITSMDVLFTNYTNSSKKNYLVIVTASKDLQIHVFKWVSEECKFQQIRSLLGHEHIVSAVKIWQKNNDVHIASCSRDQTVKIWDFHNGWSLKTFQPHSQWVRSIDVLGDYIISGSHDTTLRLTHWPSGNGLSVGTGHEFPIEKVKFIHFIEDSPEIRFRTPSTDRYKNWGMQYCVSASRDRTIKIWEIPLPTLMAHRAPIPNPTDSNFRCVLTLKGHLSWVRDISIRGQYLFSCADDKSVRCWDLNTGQCLHVWEKLHTGFVNCLDLDVDFDSNVTPRQMMVTGGLDCKSNVFMR
notes: Pac1, yeast homolog of LIS1, full length; also called WT Pac1; Pac1-SNAPf; source: S. cerevisiae, overexpressed from GAL1p; purified (IgG beads, TEV elution); not shown: 8xHis, N-terminal, cleaved; ZZ, N-terminal, cleaved; SNAPf, C-terminal, kept
Regarding B5, the “stoichiometry N” value in series [3] turned out to be 2; in series [5], 1 Pac1 dimer per Ndl1 dimer. Also, the binding result in series [6] and in series [4] was “binds” throughout.

B6: yeast Nip100 coiled-coil 1 (Nip100^CC1, residues 97-377) with N-terminal eGFP (domain or fragment, S. cerevisiae, UniProt P33420 97-377, looked up)
chain: EHSLLNGNAAQETIKNLQVKCESLASKLNKIKIENHELKTSVEKLSTNETVLLSKISRLDKLVKELKVENGNMKTHLDNFNHLLDASDSVMAPDLDKGTLLERSHLLQGLLDQTKLSYDKAMKVQEDLLEENTQLLEENAVLSKKISDLGLQLQQTNNTIGDLALQIEAQSKSSNIVDKLTNDNILLTSNIKALNNELEELQAKEKLDENLRITYEQLEQELRLQLSNLQSALENEKEIAGTYIEENSRLKATLESIEAKTSHKFQSLELKVNTLQEELYQ
notes: Nip100, yeast homolog of p150^Glued, coiled-coil 1, residues 97-377; also called GST-eGFP-Nip100^CC1; source: E. coli BL21-CodonPlus (DE3)-RIPL, purified (glutathione agarose, Ulp1 digest, SEC); not shown: GST, N-terminal, cleaved; SUMO, N-terminal, cleaved
Take B6: the binding result in series [4] is “binds”.

B7: full-length yeast Ndl1 with C-terminal FLAG-SNAPf (natural protein, S. cerevisiae, UniProt Q06568 1-189, looked up)
chain: MVPNLDLETAIQIISSLETQLSELEGATKEYENDLEQVISKLKSDLLESQQQNKCNKKQITDLEIQVDELENENIQLRNKIETLQLESDRRLERNVLLEHELLDTKEALQKLRVSKEEATSGETRRNTRSLPSQNKKMKLFKDTIKVSTTSSTLYLQNMAKTNNAARSHCNIPNTQITQSTVIATTSSV
modifications: JFX554-SNAP or JFX650-SNAP ligand on the SNAPf tag
notes: Ndl1, yeast homolog of Ndel1, full length; also called Ndl1-SNAPf; source: S. cerevisiae, overexpressed from GAL1p; purified (IgG beads, TEV elution, SEC); not shown: SNAPf, C-terminal, kept; ZZ, C-terminal, cleaved; 8xHis, C-terminal, cleaved
Regarding B7, in series [4], the binding result is reported as “binds”.
